The source of these data is patent publication US20170233494.

The data set concerns the target mouse MBL (mannose-binding lectin of mouse serum).

B1: recombinant mouse MASP-2 (rMASP-2) (protein)
chain: SKWPEPVFGRLVSPGFPEKYADHQDRSWTLTAPPGYRLRLYFTHFDLELSYRCEYDFVKLSSGTKVLATLCGQESTDTEQAPGNDTFYSLGPSLKVTFHSDYSNEKPFTGFEAFYAAEDVDECRVSLGDSVPCDHYCHNYLGGYYCSCRAGYILHQNKHTCSALCSGQVFTGRSGYLSSPEYPQPYPKLSSCTYSIRLEDGFSVILDFVESFDVETHPEAQCPYDSLKIQTDKGEHGPFCGKTLPPRIETDSHKVTITFATDESGNHTGWKIHYTSTARPCPDPTAPPNGSISPVQATYVLKDRFSVFCKTGFELLQGSVPLKSFTAVCQKDGSWDRPMPECSIIDCGPPDDLPNGHVDYITGPQVTTYKAVIQYSCEETFYTMSSNGKYVCEADGFWTSSKGEKLPPVCEPVCGLSTHTIGGRIVGGQPAKPGDFPWQVLLLGQTTAAAGALIHDNWVLTAAHAVYEKRMAASSLNIRMGILKRLSPHYTQAWPEEIFIHEGYTHGAGFDNDIALIKLKNKVTINGSIMPVCLPRKEAASLMRTDFTGTVAGWGLTQKGLLARNLMFVDIPIADHQKCTTVYEKLYPGVRVSANMLCAGLETGGKDSCRGDSGGALVFLDNETQRWFVGGIVSWGSINCGAAGQYGVYTKVINYIPWNENIISNF
Consider B1, for which the “C4 deposition on mannan-coated wells (sMAP-/- mouse serum)” value is “the amount of C4 was restored by up to 46% of that of wild-type serum in a dose-dependent manner and reached a plateau”.
